# Assay results: patent publication US20040132033
# Experiments:
# Experiment in all cases: EMSA
# SBS#1140 ZFP (synthetic) = conditions: 100 mM KCl, 1 mM MgCl2, 100 uM ZnCl2, pH 7.5, RT
# SBS#1750 ZFP (synthetic) = conditions: 100 mM KCl, 1 mM MgCl2, 100 uM ZnCl2, pH 7.5, RT
# SBS#1760 ZFP (synthetic) = conditions: 100 mM KCl, 1 mM MgCl2, 100 uM ZnCl2, pH 7.5, RT
# SBS#1764 ZFP (synthetic) = conditions: 100 mM KCl, 1 mM MgCl2, 100 uM ZnCl2, pH 7.5, RT
# SBS#1755 ZFP (synthetic) = conditions: 100 mM KCl, 1 mM MgCl2, 100 uM ZnCl2, pH 7.5, RT
# SBS#779 ZFP (synthetic) = conditions: 100 mM KCl, 1 mM MgCl2, 100 uM ZnCl2, pH 7.5, RT
# SBS#1756 ZFP (synthetic) = conditions: 100 mM KCl, 1 mM MgCl2, 100 uM ZnCl2, pH 7.5, RT
# SBS#1770 ZFP (synthetic) = conditions: target also SEQ 111; 100 mM KCl, 1 mM MgCl2, 100 uM ZnCl2, pH 7.5, RT
# SBS#781 ZFP (synthetic) = conditions: 100 mM KCl, 1 mM MgCl2, 100 uM ZnCl2, pH 7.5, RT
# SBS#519 ZFP (synthetic) = conditions: listed twice (-343 and -329, same 9 bp, SEQ 21 and 23); 100 mM KCl, 1 mM MgCl2, 100 uM ZnCl2, pH 7.5, RT
# SBS#386 ZFP (synthetic) = conditions: 100 mM KCl, 1 mM MgCl2, 100 uM ZnCl2, pH 7.5, RT
# SBS#705 ZFP (synthetic) = conditions: 100 mM KCl, 1 mM MgCl2, 100 uM ZnCl2, pH 7.5, RT
# SBS#713 ZFP (synthetic) = conditions: 100 mM KCl, 1 mM MgCl2, 100 uM ZnCl2, pH 7.5, RT
# SBS#1757 ZFP (synthetic) = conditions: 100 mM KCl, 1 mM MgCl2, 100 uM ZnCl2, pH 7.5, RT
# SBS#1772 ZFP (synthetic) = conditions: 100 mM KCl, 1 mM MgCl2, 100 uM ZnCl2, pH 7.5, RT
sequence,measurement,setting,value
AAGGGTGCG (double strand) [SBS#1140 target (-287)],Kd,SBS#1140 ZFP (synthetic),0.3 nM
ATGGAGGGC (double strand) [SBS#1750 target (-147)],Kd,SBS#1750 ZFP (synthetic),0.011 nM
ATGGCCGGG (double strand) [SBS#1760 target (-299)],Kd,SBS#1760 ZFP (synthetic),0.42 nM
CAAGTGGGT (double strand) [SBS#1764 target (-286)],Kd,SBS#1764 ZFP (synthetic),0.11 nM
CGGGAGGCC (double strand) [SBS#1755 target (-319)],Kd,SBS#1755 ZFP (synthetic),0.006 nM
CGGGGAGCA (double strand) [SBS#779 target (-356)],Kd,SBS#779 ZFP (synthetic),0.5 nM
CGGGGAGGA (double strand) [SBS#1756/1770 target (-342)],Kd,SBS#1756 ZFP (synthetic),0.125 nM
same,Kd,SBS#1770 ZFP (synthetic),0.01 nM
GGGGAGCAG (double strand) [SBS#781 target (-357)],Kd,SBS#781 ZFP (synthetic),4.25 nM
GGGGAGGAG (double strand) [SBS#519 target (-343 and -329)],Kd,SBS#519 ZFP (synthetic),1.12 nM
GGGGCGGAG (double strand) [SBS#386 target (-111)],Kd,SBS#386 ZFP (synthetic),0.4 nM
GGGGCGGGG (double strand) [SBS#705 target (-201)],Kd,SBS#705 ZFP (synthetic),0.01 nM
GGTGAGGAG (double strand) [SBS#713 target (-127)],Kd,SBS#713 ZFP (synthetic),0.15 nM
GGTGCGGAG (double strand) [SBS#1757 target (-290)],Kd,SBS#1757 ZFP (synthetic),0.05 nM
GTGGGTGAT (double strand) [SBS#1772 target (-277)],Kd,SBS#1772 ZFP (synthetic),0.006 nM
